Laboratory results: publication PMC10303687 (Protein Science : A Publication of the Protein Society, 2023)
Ends that are not written are not given here.

What was measured:
Conditions in all cases: both partners purified
[1] = biological target: MDM2_(Fishes/Tetrapods)^ML; assay: stopped-flow fluorescence kinetics; 10°C, 20 mM sodium phosphate pH 7.4, 150 mM NaCl, 1 mM TCEP; Trp23 emission; MDM2 constant at 0.5–2 μM, p53TAD varied 1–10 μM for k on; k off from displacement of the 1 μM:1 μM complex by 10–20 μM dansylated human p53TAD peptide; K D = k off/k on
[2] = biological target: T1, MDM2_(H. sapiens) SWIB domain (human (Homo sapiens)); assay: as above
T1 construct: four residues left at the N-terminus after PreScission digestion, GPGS or GPMG; which of the two for this variant is in Excel File 1 in Data S1; MDM2, human, SWIB domain; the limits of the human construct itself are in Excel File 1 in Data S1; also called human MDM2; MDM2_(Human); source: E. coli BL21 (DE3) or BL21 (DE3) pLys, purified (Ni Sepharose or glutathione agarose, PreScission cleavage, …)

[3] = biological target: MDM2_(L. camtschaticum) SWIB domain (arctic lamprey (Lethenteron …)); assay: fluorescence polarisation; displacement: FITC-labeled human p53TAD 15–26 (6 or 10 nM) and MDM2 constant, dilution series of unlabeled peptide; K D calculated from IC50; room temperature, same buffer as the kinetics
[4] = biological target: T2, MDM2_(D. rerio) SWIB domain (zebra fish (Danio rerio)); assay: stopped-flow fluorescence kinetics; 10°C, 20 mM sodium phosphate pH 7.4, 150 mM NaCl, 1 mM TCEP; Trp23 emission; MDM2 constant at 0.5–2 μM, p53TAD varied 1–10 μM for k on; k off from displacement of the 1 μM:1 μM complex by 10–20 μM dansylated human p53TAD peptide; K D = k off/k on
T2 construct: four residues left at the N-terminus after PreScission digestion, GPGS or GPMG; which of the two for this variant is in Excel File 1 in Data S1; MDM2, zebra fish, SWIB domain; Construct limits are in Excel File 1 in Data S1; also called zebra fish MDM2; source: E. coli BL21 (DE3) or BL21 (DE3) pLys, purified (Ni Sepharose or glutathione agarose, PreScission cleavage, SEC); not shown: …
T2 sequence (O42354 whole entry, looked up): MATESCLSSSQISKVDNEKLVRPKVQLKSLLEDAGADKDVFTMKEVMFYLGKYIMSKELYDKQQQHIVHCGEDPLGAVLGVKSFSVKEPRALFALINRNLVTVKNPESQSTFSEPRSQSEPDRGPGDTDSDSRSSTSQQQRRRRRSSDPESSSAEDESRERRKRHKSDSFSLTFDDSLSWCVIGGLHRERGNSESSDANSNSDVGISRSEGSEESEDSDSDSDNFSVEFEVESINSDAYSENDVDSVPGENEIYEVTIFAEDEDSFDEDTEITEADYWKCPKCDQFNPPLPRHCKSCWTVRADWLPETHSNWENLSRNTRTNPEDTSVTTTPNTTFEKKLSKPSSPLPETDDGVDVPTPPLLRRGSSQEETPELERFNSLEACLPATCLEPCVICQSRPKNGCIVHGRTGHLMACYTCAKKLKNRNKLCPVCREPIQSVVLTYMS

[5] = biological target: MDM2_(H. sapiens) SWIB domain (human (Homo sapiens)); assay: as above
[6] = biological target: MDM2_(Reptiles/Mammals)^AltAll; assay: as above
[7] = biological target: MDM2_(Fishes/Tetrapods)^AltAll; assay: as above
[8] = biological target: T1, MDM2_(H. sapiens) SWIB domain; assay: fluorescence polarisation; displacement: FITC-labeled human p53TAD 15–26 (6 or 10 nM) and MDM2 constant, dilution series of unlabeled peptide; K D calculated from IC50; room temperature, same buffer as the kinetics
[9] = biological target: T3, p53TAD_(G. gallus)^14–26 (chicken (Gallus gallus), acetylated); assay: stopped-flow fluorescence kinetics; 10°C, 20 mM sodium phosphate pH 7.4, 150 mM NaCl, 1 mM TCEP; Trp23 emission; MDM2 constant at 0.5–2 μM, p53TAD varied 1–10 μM for k on; k off from displacement of the 1 μM:1 μM complex by 10–20 μM dansylated human p53TAD peptide; K D = k off/k on
T3 construct: numbers count on: human p53 by alignment; also called chicken p53TAD; source: synthetic peptide, bought (Ontores Biotechnology, GL Biochem Shanghai Ltd or GeneCust)

[10] = biological target: MDM2_(Reptiles/Mammals)^ML; assay: as above

Chain of MDM2_(L. camtschaticum) SWIB domain (arctic lamprey (Lethenteron …)) (chain, as listed by the source): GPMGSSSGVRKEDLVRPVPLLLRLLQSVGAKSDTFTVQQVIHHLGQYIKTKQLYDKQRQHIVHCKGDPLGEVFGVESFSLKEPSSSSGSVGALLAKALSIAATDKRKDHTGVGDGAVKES

SQETFDFLWKSL (not fully specified (N-terminus); also: acetylated, site not given here) [p53TAD_(Bilateria)^AltAll]
Kd [1]: 650 nM
Kd [2]: 170 nM

CVDDFDRVWQGGV (not fully specified (N-terminus); also: acetylated, site not given here) [p53TAD_(L. camtschaticum)]
Kd [3]: 250000 nM

DSQETFAELWEKN (not fully specified (N-terminus); also: acetylated, site not given here) [p53TAD_(D. rerio)^insertT18]
Kd [4]: 2300 nM
Kd [5]: 4900 nM

SQETFSDLWNML (not fully specified (N-terminus); also: acetylated, site not given here) [p53TAD_(Reptiles/Mammals)^AltAll]
Kd [6]: 200 nM
Kd [2]: 9.5 nM

SQESFSDLWNLL (not fully specified (N-terminus); also: acetylated, site not given here) [p53TAD_(Fishes/Tetrapods)^AltAll]
Kd [7]: 98 nM
Kd [2]: 19 nM

SQETFNHLWNML (not fully specified (N-terminus); also: acetylated, site not given here) [p53TAD1R^ML]
Kd [1]: 660 nM
Kd [2]: 82 nM

SQDTFSDLWNQL (not fully specified (N-terminus); also: acetylated, site not given here) [p53TAD1R^AltAll]
Kd [1]: 370 nM
Kd [2]: 24 nM

SQETFSDLWNML (not fully specified (N-terminus); also: acetylated, site not given here) [p53TAD_(Fishes/Tetrapods)^ML]
Kd [1]: 145 nM
Kd [4]: 93 nM
Kd [2]: 8 nM

Ac-NDVELAELPWAPEDVI [p53TAD_(I. scapularis)]
Kd [8]: 400000 nM

B1: MDM2_(G. gallus) SWIB domain (domain or fragment)
chain: SPVSASEQEALVKPKPLLLKLLKLAGAEKDTFTMKEVIFYLGQYIMSKQLYDEKEQHIVHCANDLLGDLFGVTSFSVKEHRRIYSMISRNLIAINQQDSTLAVPPEDDA
Kd [9]: 90 nM

SQETFNHLWNTL (not fully specified (N-terminus); also: acetylated, site not given here) [p53TAD_(Bilateria)^ML]
Kd [1]: 2100 nM
Kd [2]: 600 nM

SQETFSDLWNLL (not fully specified (N-terminus); also: acetylated, site not given here) [p53TAD_(Reptiles/Mammals)^ML]
Kd [10]: 120 nM
Kd [2]: 8 nM
